Results: article PMC9482650, “Quantitative fragmentomics allow affinity mapping of interactomes” (Nature Communications, 2022)

B1: TMIGD1, Q6UXZ0 (peptide)
chain: DKDPHSETAL
B2: HPV30-E6, P36809 (peptide)
chain: RHTTSTETAV

The binders below were run against T1, APBA3_1, O96018 (assay: holdup assay). Conditions: plain residues with an end cap or a label only (N-terminal biotin on a linker: ttds).
T1 sequence (O96018 389-490, limits assumed, looked up): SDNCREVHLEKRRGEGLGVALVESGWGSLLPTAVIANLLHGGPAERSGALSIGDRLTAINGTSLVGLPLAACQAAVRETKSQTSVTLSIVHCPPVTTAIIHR
Parameters: key: below the threshold = too weak to quantify, mostly under pKd 3.1 to 4

Row | Binder | pKd
1 | B1 | below the threshold
2 | B2 | below the threshold

The binders below were run against T2, ARHGEF11, O15085 (assay: holdup assay). Conditions: plain residues with an end cap or a label only (N-terminal biotin on a linker: ttds).
T2 sequence (O15085 42-136, limits assumed, looked up): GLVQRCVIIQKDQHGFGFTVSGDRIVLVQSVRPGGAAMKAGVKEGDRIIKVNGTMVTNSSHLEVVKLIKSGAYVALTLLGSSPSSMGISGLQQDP
Parameters: key: below the threshold = too weak to quantify, mostly under pKd 3.1 to 4

Row | Binder | pKd
3 | B1 | 4.28
4 | B2 | 4.35

What follows are binders tested against T3, DFNB31_1, Q9P202 (assay: holdup assay). Conditions: plain residues with an end cap or a label only (N-terminal biotin on a linker: ttds).
T3 sequence (Q9P202 135-233, limits assumed, looked up): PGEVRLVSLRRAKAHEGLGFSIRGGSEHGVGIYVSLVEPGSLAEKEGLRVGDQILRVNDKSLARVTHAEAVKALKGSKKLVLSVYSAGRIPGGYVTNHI
Parameters: key: below the threshold = too weak to quantify, mostly under pKd 3.1 to 4

Row | Binder | pKd
5 | B1 | 3.98
6 | B2 | 4.27

The binders below were run against T4, DLG3_1, Q92796 (assay: holdup assay). Conditions: plain residues with an end cap or a label only (N-terminal biotin on a linker: ttds).
T4 sequence (Q92796 125-227, limits assumed, looked up): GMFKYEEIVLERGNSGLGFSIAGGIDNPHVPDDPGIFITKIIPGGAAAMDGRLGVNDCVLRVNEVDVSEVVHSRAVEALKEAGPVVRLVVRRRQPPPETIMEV
Parameters: key: below the threshold = too weak to quantify, mostly under pKd 3.1 to 4

Row | Binder | pKd
7 | B1 | below the threshold
8 | B2 | 4.45

What follows are binders tested against DLG4_2, P78352 (assay: holdup assay). Conditions: plain residues with an end cap or a label only (N-terminal biotin on a linker: ttds).
Parameters: key: below the threshold = too weak to quantify, mostly under pKd 3.1 to 4

Sequence of DLG4_2, P78352 (P78352 155-259): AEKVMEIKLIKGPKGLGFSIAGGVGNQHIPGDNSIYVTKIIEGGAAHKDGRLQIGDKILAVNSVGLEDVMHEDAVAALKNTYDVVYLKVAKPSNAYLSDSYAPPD

Row | Binder | pKd
9 | B1 | 3.78
10 | B2 | 5.45

What follows are binders tested against FRMPD3, Q5JV73 (assay: holdup assay). Conditions: plain residues with an end cap or a label only (N-terminal biotin on a linker: ttds).
Parameters: key: below the threshold = too weak to quantify, mostly under pKd 3.1 to 4

Sequence of FRMPD3, Q5JV73 (Q5JV73 12-100): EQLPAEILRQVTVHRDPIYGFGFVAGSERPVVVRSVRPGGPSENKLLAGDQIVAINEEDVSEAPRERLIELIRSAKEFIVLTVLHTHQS

Row | Binder | pKd
11 | B1 | 3.53
12 | B2 | 3.76

Each binder was assayed against GRID2IP_2, A4D2P6 (assay: holdup assay). Conditions: plain residues with an end cap or a label only (N-terminal biotin on a linker: ttds).
Parameters: key: below the threshold = too weak to quantify, mostly under pKd 3.1 to 4

Sequence of GRID2IP_2, A4D2P6 (A4D2P6 272-370): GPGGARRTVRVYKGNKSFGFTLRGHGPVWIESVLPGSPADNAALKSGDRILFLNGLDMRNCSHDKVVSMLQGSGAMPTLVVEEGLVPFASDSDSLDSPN

Row | Binder | pKd
13 | B1 | below the threshold
14 | B2 | below the threshold

These binders were tested against T5, GRIP1_4, Q9Y3R0 (assay: holdup assay). Conditions: plain residues with an end cap or a label only (N-terminal biotin on a linker: ttds).
T5 sequence (Q9Y3R0 467-571, limits assumed, looked up): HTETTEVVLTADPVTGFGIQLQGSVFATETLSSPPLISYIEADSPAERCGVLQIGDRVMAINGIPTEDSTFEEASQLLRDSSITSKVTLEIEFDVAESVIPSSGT
Parameters: key: below the threshold = too weak to quantify, mostly under pKd 3.1 to 4

Row | Binder | pKd
15 | B1 | below the threshold
16 | B2 | below the threshold

Each binder was assayed against GRIP2_4, Q9C0E4 (assay: holdup assay). Conditions: plain residues with an end cap or a label only (N-terminal biotin on a linker: ttds).
Parameters: key: below the threshold = too weak to quantify, mostly under pKd 3.1 to 4

Sequence of GRIP2_4, Q9C0E4 (Q9C0E4 446-548): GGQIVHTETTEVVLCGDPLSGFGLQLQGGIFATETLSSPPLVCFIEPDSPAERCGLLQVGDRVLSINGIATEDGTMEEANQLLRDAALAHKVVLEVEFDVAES

Row | Binder | pKd
17 | B1 | below the threshold
18 | B2 | 3.66

What follows are binders tested against GRIP2_6, Q9C0E4 (assay: holdup assay). Conditions: plain residues with an end cap or a label only (N-terminal biotin on a linker: ttds).
Parameters: key: below the threshold = too weak to quantify, mostly under pKd 3.1 to 4

Sequence of GRIP2_6, Q9C0E4 (Q9C0E4 648-740): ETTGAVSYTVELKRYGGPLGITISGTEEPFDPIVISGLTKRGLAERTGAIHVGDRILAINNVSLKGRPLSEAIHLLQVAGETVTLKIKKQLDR

Row | Binder | pKd
19 | B1 | below the threshold
20 | B2 | 3.77

The binders below were run against T6, HTRA3, P83110 (assay: holdup assay). Conditions: plain residues with an end cap or a label only (N-terminal biotin on a linker: ttds).
T6 sequence (P83110 354-453, limits assumed, looked up): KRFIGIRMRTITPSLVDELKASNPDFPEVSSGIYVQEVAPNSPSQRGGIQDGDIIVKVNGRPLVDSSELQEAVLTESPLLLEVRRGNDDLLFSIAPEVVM
Parameters: key: below the threshold = too weak to quantify, mostly under pKd 3.1 to 4

Row | Binder | pKd
21 | B1 | below the threshold
22 | B2 | below the threshold

The binders below were run against IL16_1, Q14005 (assay: holdup assay). Conditions: plain residues with an end cap or a label only (N-terminal biotin on a linker: ttds).
Parameters: key: below the threshold = too weak to quantify, mostly under pKd 3.1 to 4

Sequence of IL16_1, Q14005 (Q14005 210-306): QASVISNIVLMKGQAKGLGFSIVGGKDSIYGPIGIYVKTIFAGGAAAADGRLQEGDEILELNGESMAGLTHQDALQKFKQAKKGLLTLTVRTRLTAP

Row | Binder | pKd
23 | B1 | below the threshold
24 | B2 | 4.08

What follows are binders tested against IL16_4, Q14005 (assay: holdup assay). Conditions: plain residues with an end cap or a label only (N-terminal biotin on a linker: ttds).
Parameters: key: below the threshold = too weak to quantify, mostly under pKd 3.1 to 4

Sequence of IL16_4, Q14005 (Q14005 1229-1329): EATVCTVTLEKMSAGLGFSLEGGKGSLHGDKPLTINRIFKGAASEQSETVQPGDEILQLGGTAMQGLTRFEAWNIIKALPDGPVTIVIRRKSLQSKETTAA

Row | Binder | pKd
25 | B1 | below the threshold
26 | B2 | below the threshold

Each binder was assayed against LNX1_2, Q8TBB1 (assay: holdup assay). Conditions: plain residues with an end cap or a label only (N-terminal biotin on a linker: ttds).
Parameters: key: below the threshold = too weak to quantify, mostly under pKd 3.1 to 4

Sequence of LNX1_2, Q8TBB1 (Q8TBB1 371-470): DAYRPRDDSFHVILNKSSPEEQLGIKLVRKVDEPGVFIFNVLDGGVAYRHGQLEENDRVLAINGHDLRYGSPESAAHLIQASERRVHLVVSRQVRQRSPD

Row | Binder | pKd
27 | B1 | below the threshold
28 | B2 | 3.67

What follows are binders tested against T7, LNX2_3, Q8N448 (assay: holdup assay). Conditions: plain residues with an end cap or a label only (N-terminal biotin on a linker: ttds).
T7 sequence (Q8N448 463-564, limits assumed, looked up): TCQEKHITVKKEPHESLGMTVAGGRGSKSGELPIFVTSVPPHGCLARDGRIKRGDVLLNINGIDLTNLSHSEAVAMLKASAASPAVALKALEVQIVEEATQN
Parameters: key: below the threshold = too weak to quantify, mostly under pKd 3.1 to 4

Row | Binder | pKd
29 | B1 | below the threshold
30 | B2 | below the threshold

Each binder was assayed against T8, LRRC7, Q96NW7 (assay: holdup assay). Conditions: plain residues with an end cap or a label only (N-terminal biotin on a linker: ttds).
T8 sequence (Q96NW7 1440-1537, limits assumed, looked up): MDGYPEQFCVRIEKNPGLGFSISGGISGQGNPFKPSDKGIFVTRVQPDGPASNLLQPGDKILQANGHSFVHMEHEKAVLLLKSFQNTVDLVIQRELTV
Parameters: key: below the threshold = too weak to quantify, mostly under pKd 3.1 to 4

Row | Binder | pKd
31 | B1 | below the threshold
32 | B2 | below the threshold

These binders were tested against MAGI1_1, Q96QZ7 (assay: holdup assay). Conditions: plain residues with an end cap or a label only (N-terminal biotin on a linker: ttds).
Parameters: key: below the threshold = too weak to quantify, mostly under pKd 3.1 to 4

Sequence of MAGI1_1, Q96QZ7 (Q96QZ7 1-106): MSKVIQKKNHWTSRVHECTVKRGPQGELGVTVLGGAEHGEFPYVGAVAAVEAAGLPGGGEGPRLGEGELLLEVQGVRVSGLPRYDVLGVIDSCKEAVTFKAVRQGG

Row | Binder | pKd
33 | B1 | below the threshold
34 | B2 | below the threshold

These binders were tested against MAGI3_2, Q5TCQ9 (assay: holdup assay). Conditions: plain residues with an end cap or a label only (N-terminal biotin on a linker: ttds).
Parameters: key: below the threshold = too weak to quantify, mostly under pKd 3.1 to 4

Sequence of MAGI3_2, Q5TCQ9 (Q5TCQ9 398-503): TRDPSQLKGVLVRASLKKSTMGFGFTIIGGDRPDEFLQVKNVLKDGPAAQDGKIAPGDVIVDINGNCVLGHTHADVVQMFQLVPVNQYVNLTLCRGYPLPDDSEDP

Row | Binder | pKd
35 | B1 | 4.19
36 | B2 | 5.36

Each binder was assayed against MAST2, Q6P0Q8 (assay: holdup assay). Conditions: plain residues with an end cap or a label only (N-terminal biotin on a linker: ttds).
Parameters: key: below the threshold = too weak to quantify, mostly under pKd 3.1 to 4

Sequence of MAST2, Q6P0Q8 (Q6P0Q8 1099-1202): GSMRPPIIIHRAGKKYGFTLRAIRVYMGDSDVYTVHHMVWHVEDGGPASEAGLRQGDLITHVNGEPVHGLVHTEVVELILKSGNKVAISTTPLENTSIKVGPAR

Row | Binder | pKd
37 | B1 | 5.64
38 | B2 | 5.52

Each binder was assayed against NHERF4_4, Q86UT5 (assay: holdup assay). Conditions: plain residues with an end cap or a label only (N-terminal biotin on a linker: ttds).
Parameters: key: below the threshold = too weak to quantify, mostly under pKd 3.1 to 4

Sequence of NHERF4_4, Q86UT5 (Q86UT5 464-550): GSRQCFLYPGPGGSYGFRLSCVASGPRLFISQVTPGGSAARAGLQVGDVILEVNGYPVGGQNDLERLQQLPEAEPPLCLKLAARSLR

Row | Binder | pKd
39 | B1 | below the threshold
40 | B2 | below the threshold

Each binder was assayed against PARD3_3, Q8TEW0 (assay: holdup assay). Conditions: plain residues with an end cap or a label only (N-terminal biotin on a linker: ttds).
Parameters: key: below the threshold = too weak to quantify, mostly under pKd 3.1 to 4

Sequence of PARD3_3, Q8TEW0 (Q8TEW0 582-685): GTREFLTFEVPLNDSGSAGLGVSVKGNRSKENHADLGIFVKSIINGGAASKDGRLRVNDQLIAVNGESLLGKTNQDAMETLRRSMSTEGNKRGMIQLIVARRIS

Row | Binder | pKd
41 | B1 | 3.74
42 | B2 | below the threshold

Each binder was assayed against T9, PDZD2_2, O15018 (assay: holdup assay). Conditions: plain residues with an end cap or a label only (N-terminal biotin on a linker: ttds).
T9 sequence (O15018 329-429, limits assumed, looked up): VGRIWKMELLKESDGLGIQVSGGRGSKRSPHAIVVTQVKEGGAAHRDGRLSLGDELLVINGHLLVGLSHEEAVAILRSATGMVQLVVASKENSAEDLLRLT
Parameters: key: below the threshold = too weak to quantify, mostly under pKd 3.1 to 4

Row | Binder | pKd
43 | B1 | 3.73
44 | B2 | 4.42

Each binder was assayed against PTPN3, P26045 (assay: holdup assay). Conditions: plain residues with an end cap or a label only (N-terminal biotin on a linker: ttds).
Parameters: key: below the threshold = too weak to quantify, mostly under pKd 3.1 to 4

Sequence of PTPN3, P26045 (P26045 505-587): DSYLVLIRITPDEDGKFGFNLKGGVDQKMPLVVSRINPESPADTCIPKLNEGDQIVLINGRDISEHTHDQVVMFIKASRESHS

Row | Binder | pKd
45 | B1 | 5.02
46 | B2 | 5.13

These binders were tested against SCRIB_1, Q14160 (assay: holdup assay). Conditions: plain residues with an end cap or a label only (N-terminal biotin on a linker: ttds).
Parameters: key: below the threshold = too weak to quantify, mostly under pKd 3.1 to 4

Sequence of SCRIB_1, Q14160 (Q14160 718-814): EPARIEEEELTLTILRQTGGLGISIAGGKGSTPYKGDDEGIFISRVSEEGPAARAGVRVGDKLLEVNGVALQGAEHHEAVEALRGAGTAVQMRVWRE

Row | Binder | pKd
47 | B1 | 4.64
48 | B2 | 4.76

These binders were tested against SNX27, Q96L92 (assay: holdup assay). Conditions: plain residues with an end cap or a label only (N-terminal biotin on a linker: ttds).
Parameters: key: below the threshold = too weak to quantify, mostly under pKd 3.1 to 4

Row | Binder | pKd
49 | B1 | 5.49
50 | B2 | 5.64

Each binder was assayed against T10, SYNJ2BP, P57105 (assay: holdup assay). Conditions: plain residues with an end cap or a label only (N-terminal biotin on a linker: ttds).
T10 sequence (P57105 8-110, limits assumed, looked up): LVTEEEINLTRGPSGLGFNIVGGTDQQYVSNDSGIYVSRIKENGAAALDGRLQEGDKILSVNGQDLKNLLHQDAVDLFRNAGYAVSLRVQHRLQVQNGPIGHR
Parameters: key: below the threshold = too weak to quantify, mostly under pKd 3.1 to 4

Row | Binder | pKd
51 | B1 | 4.42
52 | B2 | 5.36

What follows are binders tested against TJP2_1, Q9UDY2 (assay: holdup assay). Conditions: plain residues with an end cap or a label only (N-terminal biotin on a linker: ttds).
Parameters: key: below the threshold = too weak to quantify, mostly under pKd 3.1 to 4

Sequence of TJP2_1, Q9UDY2 (Q9UDY2 24-128): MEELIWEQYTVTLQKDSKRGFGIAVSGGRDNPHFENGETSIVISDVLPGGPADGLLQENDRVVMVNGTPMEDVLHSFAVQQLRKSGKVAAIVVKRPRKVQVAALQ

Row | Binder | pKd
53 | B1 | below the threshold
54 | B2 | below the threshold
